This series has as its system recombinant nucleosome.

Sequence of NSD2 E1087Q mutation (Example 7) (chain, as listed by the source E1087Q): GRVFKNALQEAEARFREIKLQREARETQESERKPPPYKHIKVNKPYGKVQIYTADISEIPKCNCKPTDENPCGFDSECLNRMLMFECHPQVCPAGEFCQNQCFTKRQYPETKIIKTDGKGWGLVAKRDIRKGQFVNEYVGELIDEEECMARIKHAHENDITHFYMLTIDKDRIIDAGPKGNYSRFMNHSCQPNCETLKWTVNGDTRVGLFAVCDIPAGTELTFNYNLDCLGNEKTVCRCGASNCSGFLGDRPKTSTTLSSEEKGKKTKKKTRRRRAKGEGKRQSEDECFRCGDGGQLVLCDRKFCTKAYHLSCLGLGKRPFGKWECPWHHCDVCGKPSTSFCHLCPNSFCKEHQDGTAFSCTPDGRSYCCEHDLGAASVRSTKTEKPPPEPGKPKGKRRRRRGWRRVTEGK
Sequence of NSD2 E1099K mutant protein, purified (Example 7) (chain, as listed by the source E1099K): as the sequence (chain, as listed by the source E1087Q) above, with Q133E, E145K counted along it

As for NSD2 E1087Q mutation (Example 7), the “SAH production by LC/MS/MS in an enzymatic reaction with SAM and nucleosome (FIG. 9)” value is on record as “the NSD2 E1087Q mutation has less N-methyltransferase activity in each case”.

“NSD2 E1099K mutant protein, purified (Example 7)”: the “SAH production by LC/MS/MS in an enzymatic reaction with SAM and nucleosome (FIG. 9)” value is given as “the NSD2 E1099K protein gains extra activity on recombinant nucleosome compared to NSD2 WT”.

The record behind these values is US20150354006.
